Results: the RNAGym collection of RNA variant scans (doi:10.1101/gr.219683.116)

B1: mRNA-splicing (parent)
chain: AGUUGCUGCUGGGAGCUCCAGCACAGUGAAAUGGACAGAAGGGCAGAGCAA

Variants of: B1
Experiment: exon inclusion enrichment index; higher = more inclusion; WT1 exon 5 minigene, HEK293

Variant | exon inclusion enrichment index
G5A C6U G8A U10C | 0.819
G5A C6U U7A G8C C9A | 0.286
G5A C6U U7A G8C C9G | 0.736
G5A C6U U7A G8C C9U | 0.218
G5A C6U U7A G8U C9A A35G | 0.017
G5A C6U U7A G8U C9A A35U | 0.00487
G5A C6U U7A G8U C9A A35C | 0.00811
G5A C6U U7A G8U C9A G21C | 0.0844
G5A C6U U7A G8U C9A G21A | 0.071
G5A C6U U7A G8U C9A A25U G26C | 0.157
G5A C6U U7A G8U C9A A25U G26U | 0.0803
G5A C6U U7A G8U C9A A25U G26A | 0.0732
G5A C6U U7A G8U C9A C16U U17G | 0.0217
G5A C6U U7A G8U C9A C16U U17C | 0.0363
G5A C6U U7A G8U C9A C16U U17A | 0.0252
G5A C6U U7A G8U C9A G15U C16A | 0.0179
G5A C6U U7A G8U C9A G15U C16G | 0.0108
G5A C6U U7A G8U C9A G15U C16U | 0.00626
G5A C6U U7A G8U C9A G15C C16U | 0.0353
G5A C6U U7A G8U C9A G15C C16G | 0.0723
G5A C6U U7A G8U C9A G15C C16A | 0.0446

Variant | exon inclusion enrichment index
G5A C6U U7A G8U C9A G13U A14G | 0.00922
G5A C6U U7A G8U C9A G13U A14U | 0.0119
G5A C6U U7A G8U C9A G13U A14C | 0.0467
G5A C6U U7A G8U C9A G12A G13U | 0.000604
G5A C6U U7A G8U C9A G12A G13A | 0.027
G5A C6U U7A G8U C9A G12A G13C | 0.0112
G5A C6U U7A G8U C9A C24A A25C | 0.405
G5A C6U U7A G8U C9A C24A A25G | 0.0412
G5A C6U U7A G8U C9A C24A A25U | 0.0699
G5A C6U U7A G8U C9A C36A A37C | 0.0847
G5A C6U U7A G8U C9A C36A A37G | 0.0248
G5A C6U U7A G8U C9A C36A A37U | 0.0158
G5A C6U U7A G8U C9A G11U G12C | 0.033
G5A C6U U7A G8U C9A G11U G12A | 0.00404
G5A C6U U7A G8U C9A G11U G12U | 0.00843
G5A C6U U7A G8U C9A A14C G15U | 0.0114
G5A C6U U7A G8U C9A A14C G15A | 0.00652
G5A C6U U7A G8U C9A A14C G15C | 0.0124
G5A C6U U7A G8U C9A G12U | 0.0278
G5A C6U U7A G8U C9A G12C | 0.0374
G5A C6U U7A G8U C9A G12A | 0.0361

Variant | exon inclusion enrichment index
G5A C6U U7A G8U C9A G11C | 0.191
G5A C6U U7A G8U C9A G11A | 0.00945
G5A C6U U7A G8U C9A G11U | 0.0798
G5A C6G U7G G8A U10C | 0.159
G5A C6U G8C C9U U10C | 0.807
G5A C6U U7A G8U C9A A25U | 0.138
G5A C6U U7A G8U C9A A25C | 0.501
G5A C6U U7A G8U C9A A25G | 0.293
G5A C6U U7A G8U C9A A30C | 0.0649
G5A C6U U7A G8U C9A A30G | 0.0451
G5A C6U U7A G8U C9A A30U | 0.0249
G5A C6U U7A G8U C9A G12U G13U | 0.00049
G5A C6U U7A G8U C9A G12U G13C | 0.00721
G5A C6U U7A G8U C9A G12U G13A | 0.00185
G5A C6G U7G G8U C9U | 0.00149
G5A C6G U7G G8U C9G | 0.00173
G5A C6G U7G G8U C9A | 0.00192
G5A C6G U7G G8U | 0.00501
G5A C6G U7G G8C | 0.00742
G5A C6U U7A G8U C9A C24U A25C | 0.546
G5A C6U U7A G8U C9A C24U A25U | 0.0538

Variant | exon inclusion enrichment index
G5A C6U U7A G8U C9A C24U A25G | 0.165
G5A C6U U7A G8U | 0.171
G5A C6U U7A G8C | 0.696
G5A C6U U7A G8A | 0.217
G5A C6U U7A G8U C9A C16G U17A | 0.0334
G5A C6U U7A G8U C9A C16G U17G | 0.00515
G5A C6U U7A G8U C9A C16G U17C | 0.00521
G5A C6U U7A G8U C9A A20U G21U | 0.0251
G5A C6U U7A G8U C9A A20U G21A | 0.0106
G5A C6U U7A G8U C9A A20U G21C | 0.0614
G5A C6U U7A G8U C9A A29C | 0.0477
G5A C6U U7A G8U C9A A29G | 0.164
G5A C6U U7A G8U C9A A29U | 0.0147
G5A C6U U7A G8U C9A A20G G21A | 0.112
G5A C6U U7A G8U C9A A20G G21C | 0.11
G5A C6U U7A G8U C9A A20G G21U | 0.0713
G5A C6U U7A G8U C9A C18U | 0.0307
G5A C6U U7A G8U C9A C18A | 0.017
G5A C6U U7A G8U C9A C18G | 0.0618
G5A C6U U7A G8U C9A | 0.074
G5A C6U | 0.0142
